Key:
Experiment in all cases: holdup assay
Set-up in all cases: key: below the threshold = too weak to quantify, mostly under pKd 3.1 to 4
Conditions in all cases: plain residues with an end cap or a label only (N-terminal biotin on a linker: ttds)
[1] = biological target: GRIP2_2, Q9C0E4
[2] = biological target: MAGI1_5, Q96QZ7
[3] = biological target: RIMS2, Q9UQ26
[4] = biological target: T1, PDZD11, Q5EBL8
T1 sequence (Q5EBL8 42-139, limits assumed, looked up): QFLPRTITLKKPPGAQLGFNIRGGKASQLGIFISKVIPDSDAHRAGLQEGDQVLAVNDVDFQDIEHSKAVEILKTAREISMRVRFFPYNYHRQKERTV

[5] = biological target: MAST3, O60307
Sequence of MAST3, O60307 (O60307 945-1048): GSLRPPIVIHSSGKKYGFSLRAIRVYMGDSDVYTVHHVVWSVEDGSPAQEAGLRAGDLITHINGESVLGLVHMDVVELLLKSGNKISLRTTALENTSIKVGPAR

[6] = biological target: T2, MAGI2_1, Q86UL8
T2 sequence (Q86UL8 12-111, limits assumed, looked up): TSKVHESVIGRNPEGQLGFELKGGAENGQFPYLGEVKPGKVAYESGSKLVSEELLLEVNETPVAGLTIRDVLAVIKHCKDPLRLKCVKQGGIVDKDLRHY

[7] = biological target: RGS3, P49796-9
Sequence of RGS3, P49796-9 (P49796 other isoform, or with tags, fused parts or gaps): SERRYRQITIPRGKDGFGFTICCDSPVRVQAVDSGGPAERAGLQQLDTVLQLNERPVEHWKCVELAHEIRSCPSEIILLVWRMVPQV

[8] = biological target: GIPC3, Q8TF64
Sequence of GIPC3, Q8TF64 (Q8TF64 107-202): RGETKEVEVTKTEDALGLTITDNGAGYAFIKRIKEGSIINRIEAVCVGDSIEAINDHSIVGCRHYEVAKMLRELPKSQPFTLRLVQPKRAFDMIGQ

[9] = biological target: PARD3_1, Q8TEW0
Sequence of PARD3_1, Q8TEW0 (Q8TEW0 264-372): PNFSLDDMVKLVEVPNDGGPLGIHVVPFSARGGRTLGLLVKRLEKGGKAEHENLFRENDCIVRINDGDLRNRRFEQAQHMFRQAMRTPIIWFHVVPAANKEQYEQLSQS

[10] = biological target: T3, PDZD4, Q76G19
T3 sequence (Q76G19 125-224, limits assumed, looked up): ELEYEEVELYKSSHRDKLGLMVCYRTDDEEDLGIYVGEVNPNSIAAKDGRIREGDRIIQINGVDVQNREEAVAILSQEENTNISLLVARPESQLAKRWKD

[11] = biological target: T4, MPDZ_2, O75970
T4 sequence (O75970 252-347, limits assumed, looked up): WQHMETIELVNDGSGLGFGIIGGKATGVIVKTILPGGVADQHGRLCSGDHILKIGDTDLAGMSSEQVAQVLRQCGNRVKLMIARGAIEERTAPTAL

[12] = biological target: MAGIX, Q9H6Y5
Sequence of MAGIX, Q9H6Y5 (Q9H6Y5 118-211): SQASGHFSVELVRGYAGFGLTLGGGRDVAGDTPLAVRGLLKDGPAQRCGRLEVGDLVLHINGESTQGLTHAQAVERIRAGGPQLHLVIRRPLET

[13] = biological target: T5, SIPA1L3, O60292
T5 sequence (O60292 961-1052, limits assumed, looked up): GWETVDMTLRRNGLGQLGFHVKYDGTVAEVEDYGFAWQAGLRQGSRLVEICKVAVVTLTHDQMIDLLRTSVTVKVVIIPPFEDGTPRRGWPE

[14] = biological target: T6, SHROOM3, Q8TF72
T6 sequence (Q8TF72 20-120, limits assumed, looked up): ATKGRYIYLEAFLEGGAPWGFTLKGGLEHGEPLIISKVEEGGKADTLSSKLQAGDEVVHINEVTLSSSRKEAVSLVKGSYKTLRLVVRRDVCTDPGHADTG

[15] = biological target: T7, USH1C_2, Q9Y6N9
T7 sequence (Q9Y6N9 206-303, limits assumed, looked up): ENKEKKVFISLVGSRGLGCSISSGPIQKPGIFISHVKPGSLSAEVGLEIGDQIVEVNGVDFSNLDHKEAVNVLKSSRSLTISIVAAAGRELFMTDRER

[16] = biological target: DLG2_1, Q15700
[17] = biological target: T8, RGS12, O14924
T8 sequence (O14924 17-108, limits assumed, looked up): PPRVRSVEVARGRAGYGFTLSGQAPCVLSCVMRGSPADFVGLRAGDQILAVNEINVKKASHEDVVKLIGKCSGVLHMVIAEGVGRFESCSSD

[18] = biological target: T9, TJP3_2, O95049
T9 sequence (O95049 190-282, limits assumed, looked up): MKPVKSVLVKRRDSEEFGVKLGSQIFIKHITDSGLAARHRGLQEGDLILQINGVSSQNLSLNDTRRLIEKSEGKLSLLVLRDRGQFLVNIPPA

[19] = biological target: T10, PDZD2_4, O15018
T10 sequence (O15018 723-823, limits assumed, looked up): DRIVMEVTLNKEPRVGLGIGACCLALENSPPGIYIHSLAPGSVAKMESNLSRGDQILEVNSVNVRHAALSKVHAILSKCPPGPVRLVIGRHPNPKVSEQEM

[20] = biological target: Inadl_7, Q8NI35
Sequence of Inadl_7, Q8NI35 (Q8NI35 1219-1332): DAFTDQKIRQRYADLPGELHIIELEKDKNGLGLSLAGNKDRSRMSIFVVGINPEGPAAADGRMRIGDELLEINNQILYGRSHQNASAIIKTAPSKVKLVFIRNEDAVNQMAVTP

[21] = biological target: PDZRN4_2, Q6ZMN7
Sequence of PDZRN4_2, Q6ZMN7 (Q6ZMN7 389-498): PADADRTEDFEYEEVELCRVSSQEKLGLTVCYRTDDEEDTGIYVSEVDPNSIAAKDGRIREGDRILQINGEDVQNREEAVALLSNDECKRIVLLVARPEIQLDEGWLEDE

[22] = biological target: PTPN13_2, Q12923
Sequence of PTPN13_2, Q12923 (Q12923 1363-1462): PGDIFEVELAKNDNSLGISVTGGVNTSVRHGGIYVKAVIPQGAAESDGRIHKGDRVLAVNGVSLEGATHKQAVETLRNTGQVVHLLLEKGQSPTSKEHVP

[23] = biological target: T11, CNKSR1, Q969H4
T11 sequence (Q969H4 191-295, limits assumed, looked up): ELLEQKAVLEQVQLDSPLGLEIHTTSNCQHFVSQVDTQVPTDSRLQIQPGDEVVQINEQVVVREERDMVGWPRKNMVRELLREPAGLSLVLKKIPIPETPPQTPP

[24] = biological target: T12, GRIP1_1, Q9Y3R0
T12 sequence (Q9Y3R0 48-146, limits assumed, looked up): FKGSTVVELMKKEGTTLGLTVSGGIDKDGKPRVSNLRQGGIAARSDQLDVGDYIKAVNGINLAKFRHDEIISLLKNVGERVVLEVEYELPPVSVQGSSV

[25] = biological target: MAGI3_5, Q5TCQ9
Sequence of MAGI3_5, Q5TCQ9 (Q5TCQ9 847-941): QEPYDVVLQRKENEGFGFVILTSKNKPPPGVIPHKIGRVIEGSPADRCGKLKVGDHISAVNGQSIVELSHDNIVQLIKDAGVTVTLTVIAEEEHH

Sequence of RIMS2, Q9UQ26 (Q9UQ26 637-758): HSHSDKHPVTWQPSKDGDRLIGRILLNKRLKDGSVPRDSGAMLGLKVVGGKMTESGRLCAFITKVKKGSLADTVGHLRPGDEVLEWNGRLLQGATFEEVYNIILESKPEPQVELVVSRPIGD
Sequence of GRIP2_2, Q9C0E4 (Q9C0E4 137-245): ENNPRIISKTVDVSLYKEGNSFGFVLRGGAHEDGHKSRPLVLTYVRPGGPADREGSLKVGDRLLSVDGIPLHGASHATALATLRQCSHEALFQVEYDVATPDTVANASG
Sequence of MAGI1_5, Q96QZ7 (Q96QZ7 986-1098): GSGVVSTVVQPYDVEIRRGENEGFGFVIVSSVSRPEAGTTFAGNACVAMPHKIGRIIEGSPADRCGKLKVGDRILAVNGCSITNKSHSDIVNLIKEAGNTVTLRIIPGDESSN

RPLPRKVSQL [DOCK4, Q8N1I0]
pKd [1]: 4.25
pKd [2]: below the threshold
pKd [3]: below the threshold
pKd [4]: below the threshold
pKd [5]: below the threshold
pKd [6]: below the threshold
pKd [7]: below the threshold
pKd [8]: 4.39
pKd [9]: below the threshold
pKd [10]: below the threshold
pKd [11]: below the threshold
pKd [12]: below the threshold
pKd [13]: below the threshold
pKd [14]: below the threshold
pKd [15]: below the threshold
pKd [16]: below the threshold
pKd [17]: below the threshold
pKd [18]: below the threshold
pKd [19]: below the threshold
pKd [20]: 4.45
pKd [21]: 4.14
pKd [22]: below the threshold
pKd [23]: below the threshold
pKd [24]: 4.15
pKd [25]: below the threshold

RLPKIKETTV [FRMPD4, Q14CM0]
pKd [1]: below the threshold
pKd [2]: 4.5
pKd [3]: below the threshold
pKd [4]: below the threshold
pKd [5]: below the threshold
pKd [6]: below the threshold
pKd [7]: below the threshold
pKd [8]: below the threshold
pKd [9]: below the threshold
pKd [10]: below the threshold
pKd [11]: below the threshold
pKd [12]: below the threshold
pKd [13]: below the threshold
pKd [14]: below the threshold
pKd [15]: below the threshold
pKd [16]: 5.32
pKd [17]: 4.61
pKd [18]: below the threshold
pKd [19]: below the threshold
pKd [20]: below the threshold
pKd [21]: 4.43
pKd [22]: 4.31
pKd [23]: below the threshold
pKd [24]: below the threshold
pKd [25]: below the threshold
